The values that follow come from patent US20170267778A1 (ADC THERPEUTICS S A, published 2017).

The labels stand for the following.
B1: Mouse 5E5 (antibody, V domains shown)
VH: QVQLQQSDAELVKPGSSVKISCKASGYTFTDHAIHWVKQKPEQGLEWIGHFSPGNTDIKYNDKFKGKATLTVDRSSSTAYMQLNSLTSEDSAVYFCKTSTFFFDYWGQGTTLTVSS
VL: DIVMTQSPSSLTVTAGEKVTMICKSSQSLLNSGDQKNYLTWYQQKPGQPPKLLIFWASTRESGVPDRFTGSGSGTDFTLTISSVQAEDLAVYYCQNDYSYPLTFGAGTKLELK
notes: V regions were subcloned into pFUSE-CHIg-hG1 (human IgG1) and pFUSE2-CLIg-hk (human kappa) vectors and expressed in HEK293 cells; also called mouse 5E5 antibody; 5E5VH/5E5VK
B2: Ab2 (antibody, V domains shown)
VH: EVQLVQSGAEVKKPGESLKISCKISGYIFTDHAIHWVRQMPGKGLEWMGHFSPGNTDIKYNDKFKGQVTLSVDRSINTAYLQWSSLKASDTAIYFCKTSTFFFDYWGQGTRVTVSS
VL: DIVMTQSPDSLAVSLGERATINCKSSQSLLNSGDQKNYLTWYQQKPGQPPKLLIYWASTRESGVPDRFSGSGSGTDFTLTISSLQAEDVAVYYCQNDYSYPLTFGQGTKVEIK
notes: Expressed as human IgG1/kappa from pFUSE-CHIg-hG1 and pFUSE2-CLIg-hk vectors; also called 5E5RHB10 / 5E5RKA
B3: Ab3 (antibody, V domains shown)
VH: EVQLVESGAEVKKPGASVEVSCQASGYTFTDHAIHWVRQAPGQGLEWMGHFSPGNTDIKYNDKFKGRVTMTVDRSINTAYMELRRLRSDDTAVYYCKTSTFFFDYWGQGTMVTVSS
VL: DIVMTQSPDSLAVSLGERATINCKSSQSLLNSGDQKNYLTWYQQKPGQPPKLLIYWASTRESGVPDRFSGSGSGTDFTLTISSLQAEDVAVYYCQNDYSYPLTFGQGTKVEIK
notes: Expressed as human IgG1/kappa from pFUSE-CHIg-hG1 and pFUSE2-CLIg-hk vectors; also called 5E5RHC9 / 5E5RKA
B4: Ab4 (antibody, human IgG1, V domains shown)
VH: QVQLVQSGAEVKKTGSSVKVSCKASGYTFTDHAIHWVRQAPGQALEWMGHFSPGNTDIKYNDKFKGRVTLTVDRSMSTAYMELSSLRSEDTAMYYCKTSTFFFDYWGQGTMVTVSS
VL: DIVMTQSPLSLPVTPGEPASISCKSSQSLLNSGDQKNYLTWYLQKPGQSPQLLIYWASTRESGVPDRFSGSGSGTDFTLKISRVEAEDVGVYYCQNDYSYPLTFGGGTKVEIK
notes: Expressed as human IgG1/kappa from pFUSE-CHIg-hG1 and pFUSE2-CLIg-hk vectors; also called 5E5RHA8 / 5E5RKB
B5: Ab6 (antibody, human IgG1, V domains shown)
VH: EVQLVESGAEVKKPGASVEVSCQASGYTFTDHAIHWVRQAPGQGLEWMGHFSPGNTDIKYNDKFKGRVTMTVDRSINTAYMELRRLRSDDTAVYYCKTSTFFFDYWGQGTMVTVSS
VL: DIVMTQSPLSLPVTPGEPASISCKSSQSLLNSGDQKNYLTWYLQKPGQSPQLLIYWASTRESGVPDRFSGSGSGTDFTLKISRVEAEDVGVYYCQNDYSYPLTFGGGTKVEIK
notes: Expressed as human IgG1/kappa from pFUSE-CHIg-hG1 and pFUSE2-CLIg-hk vectors; also called 5E5RHC9 / 5E5RKB
B6: Ab5 (antibody, human IgG1, V domains shown)
VH: EVQLVQSGAEVKKPGESLKISCKISGYIFTDHAIHWVRQMPGKGLEWMGHFSPGNTDIKYNDKFKGQVTLSVDRSINTAYLQWSSLKASDTAIYFCKTSTFFFDYWGQGTRVTVSS
VL: DIVMTQSPLSLPVTPGEPASISCKSSQSLLNSGDQKNYLTWYLQKPGQSPQLLIYWASTRESGVPDRFSGSGSGTDFTLKISRVEAEDVGVYYCQNDYSYPLTFGGGTKVEIK
notes: Expressed as human IgG1/kappa from pFUSE-CHIg-hG1 and pFUSE2-CLIg-hk vectors; also called 5E5RHB10 / 5E5RKB
B7: Ab1 (antibody, V domains shown)
VH: QVQLVQSGAEVKKTGSSVKVSCKASGYTFTDHAIHWVRQAPGQALEWMGHFSPGNTDIKYNDKFKGRVTLTVDRSMSTAYMELSSLRSEDTAMYYCKTSTFFFDYWGQGTMVTVSS
VL: DIVMTQSPDSLAVSLGERATINCKSSQSLLNSGDQKNYLTWYQQKPGQPPKLLIYWASTRESGVPDRFSGSGSGTDFTLTISSLQAEDVAVYYCQNDYSYPLTFGQGTKVEIK
notes: Expressed as human IgG1/kappa from pFUSE-CHIg-hG1 and pFUSE2-CLIg-hk vectors; also called 5E5RHA8 / 5E5RKA

T1 sequence (P15941 24-1255): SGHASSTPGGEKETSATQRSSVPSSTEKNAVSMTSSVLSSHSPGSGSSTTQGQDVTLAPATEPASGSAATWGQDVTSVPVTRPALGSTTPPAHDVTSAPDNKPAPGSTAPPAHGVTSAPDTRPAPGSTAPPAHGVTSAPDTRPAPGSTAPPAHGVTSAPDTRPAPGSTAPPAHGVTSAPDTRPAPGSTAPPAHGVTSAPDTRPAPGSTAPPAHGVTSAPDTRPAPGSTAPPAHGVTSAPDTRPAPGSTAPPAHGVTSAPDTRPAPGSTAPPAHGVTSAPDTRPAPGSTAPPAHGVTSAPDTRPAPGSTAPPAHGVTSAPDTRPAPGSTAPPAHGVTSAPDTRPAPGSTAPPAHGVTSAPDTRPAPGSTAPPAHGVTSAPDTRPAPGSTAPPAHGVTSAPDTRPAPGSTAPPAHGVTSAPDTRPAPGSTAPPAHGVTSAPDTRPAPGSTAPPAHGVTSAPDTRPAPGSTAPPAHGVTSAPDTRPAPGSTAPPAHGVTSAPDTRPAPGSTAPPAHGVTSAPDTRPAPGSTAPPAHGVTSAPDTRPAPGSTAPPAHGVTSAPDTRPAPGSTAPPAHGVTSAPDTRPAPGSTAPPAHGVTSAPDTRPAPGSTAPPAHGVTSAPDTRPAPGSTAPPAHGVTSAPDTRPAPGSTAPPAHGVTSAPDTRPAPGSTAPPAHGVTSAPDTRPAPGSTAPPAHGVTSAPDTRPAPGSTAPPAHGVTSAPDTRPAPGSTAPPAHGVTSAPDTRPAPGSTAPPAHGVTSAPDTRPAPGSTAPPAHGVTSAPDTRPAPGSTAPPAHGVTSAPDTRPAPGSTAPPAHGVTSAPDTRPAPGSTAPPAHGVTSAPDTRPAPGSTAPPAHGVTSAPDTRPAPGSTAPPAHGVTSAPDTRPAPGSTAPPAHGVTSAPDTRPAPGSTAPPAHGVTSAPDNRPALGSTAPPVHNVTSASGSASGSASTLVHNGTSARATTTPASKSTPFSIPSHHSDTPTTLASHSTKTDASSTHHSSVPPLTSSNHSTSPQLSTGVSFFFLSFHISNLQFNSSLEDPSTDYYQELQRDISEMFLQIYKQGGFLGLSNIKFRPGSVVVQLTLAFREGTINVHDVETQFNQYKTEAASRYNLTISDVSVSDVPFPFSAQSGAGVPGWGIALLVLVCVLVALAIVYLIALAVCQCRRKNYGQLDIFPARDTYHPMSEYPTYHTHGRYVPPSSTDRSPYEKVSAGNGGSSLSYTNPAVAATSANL

This test has as its target T1, Tn-MUC1 on ZR-75-1 cells (human, UniProt P15941 24-1255, Tn glycoform (GalNAcα1-O-Ser/Thr) as expressed by the cells).
T1 construct: whole, on cells; also called ZR-75-1 cell line, which expresses Tn-MUC1; Tn-MUC1(+ve) cell line ZR75-1
In words: flow cytometry on ZR-75-1 cells (protocol 6). How it is done: Exponentially growing cells are suspended by incubation with cell dissociation buffer enzyme-free, Hanks-based (Gibco 13150-016) following the manufacturer's instructions. A cell count/viability is done on a dilution of 10 ul cells+Trypan Blue, 10 ul, with a haemocytomer. The suspension is centrifuged and the cell pellet re-suspended in binding buffer at 3×10̂6 per ml. If significant levels of aggregates are present in the cell count, the suspension is filtered to remove aggregates. The cell suspension is dispensed (50 ul/well) in 96 well U-bottom plates and cooled on ice for 10 minutes. Primary antibody (50 ul/well) diluted in binding buffer (typically 1 ug per ml or less) is added to each well and incubated at 4° C. for 1 hour. The microplate is centrifuged 5 min at 300-400 g at 4° C., flicked to remove the supernatant and then the cell pellet re-suspended in 200 uL of wash buffer (PBS, 0.1% sodium azide). Centrifugation and re-suspension are done 4 times in all. After the last centrifugation, cells are re-suspended in 50 uL of binding buffer containing the biotin labelled conjugate 1:250 (kept at −20 C: Biotin-SP-AffiniPure F(ab′)2 Fragment Goat antihuman IgG (H+L); Jackson 109-066-088). Cells are incubated for 1 hour at 4 C, then washed 4 times as before. Cells are resuspended in 50 ul of binding buffer containing Streptavidin, Alexa Fluor® 488 conjugate (Life Technologies s11223) diluted 1:250 and Fixable Viability Dye eFluor@780 (eBioscience 65-0865) diluted 1:2000, The cells are incubated at 4° C. for 1 hour and then washed 3 times, as above. Cells are then re-suspended in PBS if reading immediately or fixed in 100 ul of paraformaldehyde (2% (w/v) in PBS) and analysed with by flow cytometer (Accuri C6), gating on live cells which have a lower Fixable Viability Dye MFI compared to dead cells.
IgG binding potency to Tn-MUC1 was measured as per protocol 4 and binding to the ZR-75-1 cell line, which expresses Tn-MUC1, was measured as per protocol 6.
For orientation: In flow cytometry, cells or beads pass a laser one at a time.
Take B1: the response was half-maximal at 0.0283 µg/mL (EC50).

Regarding B2, it took 0.0168 µg/mL to reach a half-maximal effect (EC50).

In the case of B3, the half-maximal effective concentration (EC50) (in general, the concentration giving half of the maximal effect) is 0.0268 µg/mL.

On to B4, for which a half-maximal response (EC50) required 0.0423 µg/mL.

Regarding B5, a half-maximal effect (EC50) was put at 0.0413 µg/mL.

For the molecule B6, the 50% effective concentration (EC50) worked out at 0.0184 µg/mL.

With B7, the response was half-maximal at 0.00986 µg/mL (EC50).
